Results reported in patent publication US6670147.

What was measured:
[1] = target: nonmutated (wild-type) FX (UniProt P00742); test: cell-based or functional assay
[2] = target: mutated factor X (human FX in which amino acid 194 has been mutated from Arg to Tyr) (human) (UniProt P00742); test: cell-based or functional assay

| coagulation time (recalcification time in FX-deficient plasma) [2] [s] | Substance | coagulation time (recalcification time in FX-deficient plasma) [1] [s] |
| --- | --- | --- |
|  | Russel's viper venom (RVV) | 50 |
| 50 | prostate-specific antigen (PSA) (from UniProt P07288 25-261) (enzyme) |  |
